In patent US20230055408A1 (JIANGSU HENGRUI MEDICINE, published 2023):
Like-named read-outs stand apart in the source and are kept apart here.

T1: monkey CEA expressed on CHO cell surface (cynomolgus monkey)
T1 construct: also called cynoCEA-CHO; monkey CEA proteins on the cell surface
T1 chain: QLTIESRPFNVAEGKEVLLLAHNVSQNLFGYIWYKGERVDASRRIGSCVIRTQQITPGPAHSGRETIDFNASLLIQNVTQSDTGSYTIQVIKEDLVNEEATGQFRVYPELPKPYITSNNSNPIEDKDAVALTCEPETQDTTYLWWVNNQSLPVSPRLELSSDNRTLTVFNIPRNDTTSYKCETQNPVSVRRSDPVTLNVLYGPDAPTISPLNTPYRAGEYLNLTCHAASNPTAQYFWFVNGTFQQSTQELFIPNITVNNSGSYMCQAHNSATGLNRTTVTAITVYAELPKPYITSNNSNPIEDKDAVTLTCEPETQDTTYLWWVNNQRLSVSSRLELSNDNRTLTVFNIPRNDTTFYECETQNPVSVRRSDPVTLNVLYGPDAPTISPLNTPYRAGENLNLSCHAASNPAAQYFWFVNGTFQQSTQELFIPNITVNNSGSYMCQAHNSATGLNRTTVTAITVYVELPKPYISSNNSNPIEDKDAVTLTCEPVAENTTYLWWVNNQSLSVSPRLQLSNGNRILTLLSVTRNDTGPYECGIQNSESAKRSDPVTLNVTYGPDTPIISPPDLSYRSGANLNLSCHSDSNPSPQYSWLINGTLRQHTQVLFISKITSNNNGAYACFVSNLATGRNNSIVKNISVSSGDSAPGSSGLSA

T2: human CEA protein on the cell surface (human, UniProt P06731 35-685)
T2 construct: whole, on cells; also called CEACAM-5; CD66e
T2 sequence (looked up): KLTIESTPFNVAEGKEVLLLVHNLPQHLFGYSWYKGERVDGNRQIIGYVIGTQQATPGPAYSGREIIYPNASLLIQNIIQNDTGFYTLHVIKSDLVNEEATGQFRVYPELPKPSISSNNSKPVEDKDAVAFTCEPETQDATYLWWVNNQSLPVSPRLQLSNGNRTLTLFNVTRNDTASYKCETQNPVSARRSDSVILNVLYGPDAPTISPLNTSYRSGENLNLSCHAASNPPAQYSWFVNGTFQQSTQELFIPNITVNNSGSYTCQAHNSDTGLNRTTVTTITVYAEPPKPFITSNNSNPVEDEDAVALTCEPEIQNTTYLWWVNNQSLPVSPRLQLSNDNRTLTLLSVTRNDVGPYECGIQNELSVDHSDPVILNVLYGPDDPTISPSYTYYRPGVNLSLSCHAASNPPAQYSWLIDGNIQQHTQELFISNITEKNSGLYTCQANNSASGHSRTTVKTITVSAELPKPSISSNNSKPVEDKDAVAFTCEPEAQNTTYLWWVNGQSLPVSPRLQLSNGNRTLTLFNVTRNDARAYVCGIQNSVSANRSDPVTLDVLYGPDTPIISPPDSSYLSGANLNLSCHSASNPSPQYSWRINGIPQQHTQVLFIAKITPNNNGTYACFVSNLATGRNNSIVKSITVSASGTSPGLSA

T3: human CEACAM1 expressed on CHO cell surface (human, UniProt P13688 35-526)
T3 construct: also called CEACAM1-CHO
T3 sequence: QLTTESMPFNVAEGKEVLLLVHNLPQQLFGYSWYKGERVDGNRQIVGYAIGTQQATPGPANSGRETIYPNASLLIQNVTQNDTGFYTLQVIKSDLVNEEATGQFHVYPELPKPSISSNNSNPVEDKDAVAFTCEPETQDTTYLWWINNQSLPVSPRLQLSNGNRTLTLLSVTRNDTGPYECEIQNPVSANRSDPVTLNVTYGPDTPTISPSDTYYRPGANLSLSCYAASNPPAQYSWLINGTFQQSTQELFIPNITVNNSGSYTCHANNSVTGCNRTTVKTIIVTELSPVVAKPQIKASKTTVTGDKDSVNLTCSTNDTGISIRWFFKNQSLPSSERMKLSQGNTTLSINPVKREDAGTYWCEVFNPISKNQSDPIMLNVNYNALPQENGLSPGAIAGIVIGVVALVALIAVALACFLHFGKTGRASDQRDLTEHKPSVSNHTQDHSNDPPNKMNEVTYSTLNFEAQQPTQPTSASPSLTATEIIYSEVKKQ

T4: human soluble CEA (human, UniProt P06731 35-685, limits assumed)
T4 construct: also called sCEA
T4 sequence (looked up): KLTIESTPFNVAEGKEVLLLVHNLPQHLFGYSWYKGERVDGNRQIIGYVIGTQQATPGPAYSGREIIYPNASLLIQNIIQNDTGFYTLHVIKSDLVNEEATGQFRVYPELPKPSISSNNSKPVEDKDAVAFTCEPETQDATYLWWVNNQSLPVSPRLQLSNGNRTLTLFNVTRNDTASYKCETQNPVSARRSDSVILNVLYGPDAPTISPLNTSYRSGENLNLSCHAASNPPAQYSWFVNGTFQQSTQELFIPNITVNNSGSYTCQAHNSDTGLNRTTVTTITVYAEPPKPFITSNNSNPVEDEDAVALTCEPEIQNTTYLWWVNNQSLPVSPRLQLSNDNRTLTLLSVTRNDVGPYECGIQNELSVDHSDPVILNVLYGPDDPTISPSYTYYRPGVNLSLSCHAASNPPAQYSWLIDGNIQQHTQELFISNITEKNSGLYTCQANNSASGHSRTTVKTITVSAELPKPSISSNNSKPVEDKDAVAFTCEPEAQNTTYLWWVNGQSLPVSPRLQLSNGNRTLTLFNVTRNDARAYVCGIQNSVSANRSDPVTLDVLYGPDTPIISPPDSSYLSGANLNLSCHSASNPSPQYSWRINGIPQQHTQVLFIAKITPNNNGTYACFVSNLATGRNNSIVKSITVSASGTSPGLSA

B1: mAb47 (antibody, V domains shown)
VH: QIQLVQSGPELKKPGETVKISCKASGYTFTTYGMSWVKQAPGKGLKWMGWINTYSGVPTYADDFKGRFAFSLETSASTAYLQINNLKNEDTATYFCARRGNYGRWDFDVWGTGTTVTVSS
VL: EIVLTQSPALMAASPGEKVTITCSVSSTISSSNLHWYQQKSETSPKPWIYGTSNLASGVPVRFSGSGSGTSYSLTISSMEAEDAATYYCQQWSIYPLTFGAGTKLELK
notes: Murine hybridoma antibody
B2: Hu63-13 (antibody, human IgG1, kappa, V domains shown)
VH: EVQLVQSGAEVKKPGASVKVSCKASGYTFTDFYMNWVRQAPGQGLEWMGDIFPKSGNTDYNRKFKDRVTMTRDTSTSTVYMELSSLRSEDTAVYYCARSGYGNYVFDYWGQGTLVTVSS
VL: DIQMTQSPSSLSASVGDRVTITCRTSQDINIYLNWYQQKPGKAPKLLIYYRSGLLSGVPSRFSGSGSGTDFTLTISSLQPEDFATYYCQQGNTLPPTFGGGTKVEIKR
notes: Humanized IgG1/kappa; h63VH5 + h63VL1
B3: Hu103-32 (antibody, human IgG1, lambda, V domains shown)
VH: EVQLVQSGSELKKPGASVKVSCKASGYTFTTYGVIWVRQAPGQGLEWMGWINTYSGVPTYASDFKGRFVFSLDTSVSTAYLQISSLKAEDTAVYYCARKKTLTTVTPWFAYWGQGTLVTVSS
VL: ELVLTQSPSASASLGASVKLTCTLSSQHSTYTIEWYQQQPEKGPRYVMELKKDGSHSTGEGIPDRFSGSSSGAERYLTISSLQSEDEADYYCGVGNTIKEQFVYVFGGGTKLTVLG
notes: Humanized IgG1/lambda; h103VH4 + h103VL8
B4: Hu47-14 (antibody, human IgG1, kappa, V domains shown)
VH: EVQLVQSGSELKKPGASVKVSCKASGYTFTTYGMSWVKQAPGQGLKWMGWINTYSGVPTYASDFKGRFVFSLDTSVSTAYLQISSLKAEDTAVYYCARRGNYGRWDFDVWGQGTTVTVSS
VL: EIVLTQSPDFQSVTPKEKVTITCSVSSTISSSNLHWYQQKPDQSPKPLIYGTSNLASGVPSRFSGSGSGTDYTLTINSLEAEDAATYYCQQWSIYPLTFGQGTKLEIKR
notes: Humanized IgG1/kappa; h47VH4 + h47VL2
B5: Hu67-14 (antibody, human IgG1, kappa, V domains shown)
VH: EVQLVQSGAEVKKPGESLKISCKGSGYSFTDYHMNWVKQMPGKGLEWMGDINPDIGGTSYNQNFKGKVTISVDKSISTAYLQWSSLKASDTAMYYCARWDFDSFANWGQGTLVTVSS
VL: DIQMTQSPSSLSASVGDRVTITCRASESVSIIGTNLIHWYQQKPGKAPKLLIYHASNLETGVPSRFSGSGSGTDFTLTISSLQPEDFATYYCLQSRKIPYTFGGGTKVEIKR
notes: Humanized IgG1/kappa; h67VH3 + h67VL4
B6: Labetuzumab (antibody, human IgG1, kappa, V domains shown)
VH: EVQLVESGGGVVQPGRSLRLSCSASGFDFTTYWMSWVRQAPGKGLEWIGEIHPDSSTINYAPSLKDRFTISRDNAKNTLFLQMDSLRPEDTGVYFCASLYFGFPWFAYWGQGTPVTVSS
VL: DIQLTQSPSSLSASVGDRVTITCKASQDVGTSVAWYQQKPGKAPKLLIYWTSTRHTGVPSRFSGSGSGTDFTFTISSLQPEDIATYYCQQYSLYRSFGQGTKVEIKR
notes: Positive control antibody; also called Lmab; antibody in Lmab-CL2A-SN38
B7: mAb67 (antibody, V domains shown)
VH: EVQLQQSGPELVKPGASVKIYCKASGYTFTDYHMNWVKQSHGKSLEWIGDINPDIGGTSYNQNFKGKATLTVDKSSSTAYMELRSLTSEDSAVYYCSRWDFDSFANWGQGTLVTVSA
VL: DIVMTQSPASLAMSLGKRATISCRASESVSIIGTNLIHWYQQKPGQPPKLLIYHASNLETGVPARFSGSGSGADFTLTIDPVEGDDVALYYCLQSRKIPYTFGGGTKMEIK
notes: Murine hybridoma antibody

Legend:
[1] = target: T1, monkey CEA expressed on CHO cell surface; experiment: FACS, cynoCEA-CHO cells
[2] = target: T2, human CEA protein on the cell surface; experiment: FACS, MKN45 cells
[3] = target: T3, human CEACAM1 expressed on CHO cell …; experiment: FACS, CEACAM1-CHO cells
[4] = target: T3, human CEACAM1 expressed on CHO cell …; experiment: FACS, CEACAM1-CHO cells; remark: listed apart in the source
[5] = target: T1, monkey CEA expressed on CHO cell surface; experiment: FACS, cynoCEA-CHO cells
[6] = target: T2, human CEA protein on the cell surface; experiment: FACS, MKN45 cells; remark: listed apart in the source
human soluble CEA = target: T4, human soluble CEA; experiment: SPR (Biacore T200), antibody captured, soluble CEA as analyte, 1:1 Langmuir
Protocol: The affinity of a test humanized antibody for human and monkey soluble CEA was determined using a Biacore (GE, T200) instrument. According to the method in the instructions of a human antibody capture kit (GE, Cat #BR-1008-39), the human antibody capture antibody was covalently conjugated to a biosensor chip CM5 (GE, Cat #BR-1005-30) of the Biacore instrument to affinity-capture a certain amount of the test antibody, then a series of concentration gradients of soluble CEA antigens were allow to flow through the surface of the chip, and reaction signals were detected in real time using Biacore, so that an association and dissociation curve was obtained. After each cycle of dissociation was completed, the biochip was washed and regenerated with a regeneration solution prepared in the human antibody capture kit. The data obtained from the experiment were fitted with the (1:1) Langmuir model using BIAevaluation version 4.1 software to obtain affinity values.

| Binder | EC50 [1] [nM] | EC50 [2] [nM] | binding result [3] | binding result [4] | EC50 [5] [nM] | EC50 [6] [nM] | Kd (human soluble CEA) [nM] | binding result [5] |
| --- | --- | --- | --- | --- | --- | --- | --- | --- |
| B1 | 1.66 | 2.1 | no binding |  |  |  |  |  |
| B2 |  |  |  | no binding | 1.71 | 2.93 | 144 |  |
| B3 |  |  |  | no binding |  | 1.79 | 31.1 |  |
| B4 |  |  |  | no binding | 2.7 | 4.19 | 1430 |  |
| B5 |  |  |  | no binding | 2.89 |  | 228 |  |
| B6 |  |  |  | no binding |  | 2.45 | 5.93 | no binding |
| B7 | 6 | 1.9 | no binding |  |  |  |  |  |
